Measurements as given in US20240287190A1 (THERANOTICS, published 2024).
Residue numbers refer to the chain shown, from its start.

T1: recombinant human B7-H3 protein (R&D Systems, Cat #1027-B3-100) (human, UniProt Q5ZPR3-2 29-245)
T1 construct: Bought protein; also called CD276
T1 sequence (looked up): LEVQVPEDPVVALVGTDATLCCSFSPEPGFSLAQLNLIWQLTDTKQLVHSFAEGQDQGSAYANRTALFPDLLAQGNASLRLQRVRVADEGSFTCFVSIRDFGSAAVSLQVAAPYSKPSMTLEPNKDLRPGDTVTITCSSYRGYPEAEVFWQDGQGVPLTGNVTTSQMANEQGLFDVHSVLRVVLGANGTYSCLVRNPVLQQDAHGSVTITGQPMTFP

T2: recombinant human TGFβ3 protein (R&D Systems, Cat #8420-B3-025/CF) (human, UniProt P10600 301-412)
T2 construct: Bought protein
T2 sequence (looked up): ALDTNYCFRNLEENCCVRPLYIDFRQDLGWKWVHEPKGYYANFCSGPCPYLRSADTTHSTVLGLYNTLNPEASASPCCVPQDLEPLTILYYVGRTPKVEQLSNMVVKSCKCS

T3: recombinant human TGFβ2 (R&D Systems, Cat #302-B2-010/CF) (human, UniProt P61812 303-414)
T3 construct: Bought protein
T3 sequence (looked up): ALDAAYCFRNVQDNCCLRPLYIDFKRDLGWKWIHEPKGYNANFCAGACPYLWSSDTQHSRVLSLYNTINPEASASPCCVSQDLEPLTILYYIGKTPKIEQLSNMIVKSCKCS

B1: #6 bispecific molecule (bispecific antibody, human IgG1, N297A)
heavy: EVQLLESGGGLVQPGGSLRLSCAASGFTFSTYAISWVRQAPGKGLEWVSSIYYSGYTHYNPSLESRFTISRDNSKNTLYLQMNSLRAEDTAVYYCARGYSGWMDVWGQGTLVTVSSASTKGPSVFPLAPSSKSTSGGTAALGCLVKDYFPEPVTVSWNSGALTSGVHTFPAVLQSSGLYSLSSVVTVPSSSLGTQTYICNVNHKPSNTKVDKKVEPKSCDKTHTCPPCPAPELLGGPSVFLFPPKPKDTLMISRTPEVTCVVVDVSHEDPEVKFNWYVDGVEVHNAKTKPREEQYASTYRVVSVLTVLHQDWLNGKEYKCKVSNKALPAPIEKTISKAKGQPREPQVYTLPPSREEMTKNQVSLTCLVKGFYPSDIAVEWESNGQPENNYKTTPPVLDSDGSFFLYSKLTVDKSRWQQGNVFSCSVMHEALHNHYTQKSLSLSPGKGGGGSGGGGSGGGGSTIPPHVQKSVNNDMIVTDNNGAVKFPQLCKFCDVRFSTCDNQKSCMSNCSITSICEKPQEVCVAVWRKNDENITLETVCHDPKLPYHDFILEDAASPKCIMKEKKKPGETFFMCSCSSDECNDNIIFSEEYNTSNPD
VL: QSVLTQPPSASGTPGQRVTISCGGNNIGSKSVHWYQQLPGTAPKLLIYDNNKRPSGVPNRFSGSKSGTSASLAISGLRSEDEADYYCAAWDDSLNVPVFGGGTKLTVL
notes: also called #6 (TRAP); B7-H3/TGFβ bispecific molecule #6
B2: #9 bispecific molecule (bispecific antibody, human IgG1, N297A)
heavy: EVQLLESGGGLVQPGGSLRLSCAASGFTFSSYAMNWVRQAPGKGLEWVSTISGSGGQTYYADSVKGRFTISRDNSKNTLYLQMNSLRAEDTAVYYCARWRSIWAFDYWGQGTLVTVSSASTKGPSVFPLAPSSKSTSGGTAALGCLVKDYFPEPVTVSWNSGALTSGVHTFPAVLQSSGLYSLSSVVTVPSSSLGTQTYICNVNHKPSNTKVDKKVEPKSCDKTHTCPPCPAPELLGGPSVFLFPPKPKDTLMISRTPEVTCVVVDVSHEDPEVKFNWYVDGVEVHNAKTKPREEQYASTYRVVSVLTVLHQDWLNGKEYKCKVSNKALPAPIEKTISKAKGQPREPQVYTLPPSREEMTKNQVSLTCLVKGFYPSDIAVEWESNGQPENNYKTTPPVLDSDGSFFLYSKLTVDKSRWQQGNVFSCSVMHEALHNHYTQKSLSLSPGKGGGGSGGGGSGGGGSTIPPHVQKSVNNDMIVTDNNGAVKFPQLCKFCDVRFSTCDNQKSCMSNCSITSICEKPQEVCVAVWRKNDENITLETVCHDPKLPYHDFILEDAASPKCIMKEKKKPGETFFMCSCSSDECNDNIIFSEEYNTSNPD
VL: B1 VL with G23S, G24D, N59D, A88G, A89T, N95S, V96G
notes: also called #9 (TRAP); B7-H3/TGFβ bispecific molecule #9
B3: #1 bispecific molecule (bispecific antibody, human IgG1, N297A)
heavy: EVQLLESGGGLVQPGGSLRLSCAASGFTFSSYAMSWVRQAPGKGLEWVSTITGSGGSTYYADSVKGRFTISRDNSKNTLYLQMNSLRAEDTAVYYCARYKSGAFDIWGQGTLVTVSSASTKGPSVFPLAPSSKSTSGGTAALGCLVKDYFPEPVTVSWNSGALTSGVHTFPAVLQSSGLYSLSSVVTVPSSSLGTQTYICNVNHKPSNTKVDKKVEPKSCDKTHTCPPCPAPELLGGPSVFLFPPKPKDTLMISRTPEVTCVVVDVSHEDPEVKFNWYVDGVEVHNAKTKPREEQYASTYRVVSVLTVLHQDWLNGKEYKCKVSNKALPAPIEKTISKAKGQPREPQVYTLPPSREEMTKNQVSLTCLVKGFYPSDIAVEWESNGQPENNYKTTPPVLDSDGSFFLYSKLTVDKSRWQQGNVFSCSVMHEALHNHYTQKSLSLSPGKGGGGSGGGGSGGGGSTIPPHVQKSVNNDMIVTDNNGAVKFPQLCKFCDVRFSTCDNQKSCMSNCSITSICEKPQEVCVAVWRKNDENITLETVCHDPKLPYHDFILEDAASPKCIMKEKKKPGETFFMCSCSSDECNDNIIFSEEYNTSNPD
VL: EIVLTQSPGTLSLSPGERATLSCRASQGIGNYLGWYQQKPGQAPRLLIYTASSLQSGIPDRFSGSGSGTDFTLTISRLEPEDFAVYYCQQGYSTPSWTFGQGTKVEIK
notes: also called #1 (TRAP); B7-H3/TGFβ bispecific molecule #1
B4: #8 bispecific molecule (bispecific antibody, human IgG1, N297A)
heavy: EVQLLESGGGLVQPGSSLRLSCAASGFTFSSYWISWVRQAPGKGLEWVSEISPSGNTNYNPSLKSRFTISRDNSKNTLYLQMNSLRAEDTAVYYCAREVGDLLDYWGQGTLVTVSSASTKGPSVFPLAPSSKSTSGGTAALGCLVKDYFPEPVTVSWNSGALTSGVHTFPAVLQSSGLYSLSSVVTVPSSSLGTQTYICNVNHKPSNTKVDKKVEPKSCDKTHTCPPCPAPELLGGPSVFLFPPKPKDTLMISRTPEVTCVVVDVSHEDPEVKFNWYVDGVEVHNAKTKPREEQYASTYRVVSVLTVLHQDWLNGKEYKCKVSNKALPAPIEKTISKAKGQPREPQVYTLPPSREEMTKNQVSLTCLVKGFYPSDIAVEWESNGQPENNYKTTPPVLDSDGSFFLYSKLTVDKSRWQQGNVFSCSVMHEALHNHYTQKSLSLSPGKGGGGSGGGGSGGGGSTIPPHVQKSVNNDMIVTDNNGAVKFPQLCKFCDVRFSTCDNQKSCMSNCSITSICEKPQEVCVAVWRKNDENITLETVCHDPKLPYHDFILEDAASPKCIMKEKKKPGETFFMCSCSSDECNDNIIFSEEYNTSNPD
VL: QSVLTQPPSASGTPGQRVTISCSGSNIGNNYVSWYQQLPGTAPKLLIYQDSKRPSGVPDRFSGSKSGTSASLAISGLRSEDEADYYCLVWDRSSDHFVFGGGTKLTVL
notes: also called #8 (TRAP); B7-H3/TGFβ bispecific molecule #8
B5: #5 bispecific molecule (bispecific antibody, human IgG1, N297A)
heavy: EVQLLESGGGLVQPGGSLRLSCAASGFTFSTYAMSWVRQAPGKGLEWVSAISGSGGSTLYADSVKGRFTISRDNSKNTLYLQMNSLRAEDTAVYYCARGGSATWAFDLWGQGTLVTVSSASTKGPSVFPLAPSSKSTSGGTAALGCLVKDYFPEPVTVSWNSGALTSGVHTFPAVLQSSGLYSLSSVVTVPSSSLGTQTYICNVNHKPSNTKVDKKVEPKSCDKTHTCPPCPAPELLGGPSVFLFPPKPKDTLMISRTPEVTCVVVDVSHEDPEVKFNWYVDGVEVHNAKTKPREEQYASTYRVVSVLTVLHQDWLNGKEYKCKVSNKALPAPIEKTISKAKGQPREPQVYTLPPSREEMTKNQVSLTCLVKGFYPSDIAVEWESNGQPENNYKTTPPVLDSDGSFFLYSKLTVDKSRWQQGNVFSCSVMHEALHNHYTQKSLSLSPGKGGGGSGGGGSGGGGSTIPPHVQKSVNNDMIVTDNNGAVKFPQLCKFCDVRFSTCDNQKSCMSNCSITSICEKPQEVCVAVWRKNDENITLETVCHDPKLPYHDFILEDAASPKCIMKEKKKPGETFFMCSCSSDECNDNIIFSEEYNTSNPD
VL: QSVLTQPPSASGTPGQRVTISCSGSSSNIGSNYVYWYQQLPGTAPKLLIYRNNQRPSGVPDRFSGSKSGTSASLAISGLRSEDEADYYCGTWDSSLSGVVFGGGTKLTVL
notes: also called #5 (TRAP); B7-H3/TGFβ bispecific molecule #5
B6: #2 bispecific molecule (bispecific antibody, human IgG1, N297A)
heavy: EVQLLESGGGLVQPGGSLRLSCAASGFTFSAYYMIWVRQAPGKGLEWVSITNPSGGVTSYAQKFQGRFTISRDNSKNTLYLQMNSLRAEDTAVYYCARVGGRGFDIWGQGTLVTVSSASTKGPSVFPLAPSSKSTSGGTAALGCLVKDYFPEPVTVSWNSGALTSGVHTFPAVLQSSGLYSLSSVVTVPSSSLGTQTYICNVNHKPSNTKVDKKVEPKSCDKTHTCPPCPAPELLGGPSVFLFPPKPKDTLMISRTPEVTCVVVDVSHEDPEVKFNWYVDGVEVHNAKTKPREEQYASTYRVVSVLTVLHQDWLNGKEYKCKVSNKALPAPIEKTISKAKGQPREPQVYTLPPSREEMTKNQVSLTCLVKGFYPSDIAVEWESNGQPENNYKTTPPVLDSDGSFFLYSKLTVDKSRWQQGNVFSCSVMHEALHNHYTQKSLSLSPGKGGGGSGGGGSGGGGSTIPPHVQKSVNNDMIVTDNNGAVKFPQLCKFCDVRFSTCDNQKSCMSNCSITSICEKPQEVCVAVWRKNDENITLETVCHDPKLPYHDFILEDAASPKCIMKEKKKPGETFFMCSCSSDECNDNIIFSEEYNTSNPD
VL: EIVLTQSPGTLSLSPGERATLSCHASQGISNYVAWYQQKPGQAPRLLIYDASNRATGIPDRFSGSGSGTDFTLTISHLEPEDFAVYYCQQSYSTLLTFGQGTKVEIK
notes: also called #2 (TRAP); B7-H3/TGFβ bispecific molecule #2
B7: #3 bispecific molecule (bispecific antibody, human IgG1, N297A)
heavy: not shown
VL: EIVLTQSPGTLSLSPGERATLSCRVSQSISSYLNWYQQKPGQAPRLLIYDASHRATGIPDRFSGSGSGTDFTLTISRLEPEDFAVYYCQQYYAPSVTFGQGTKVEIK
notes: also called #3 (TRAP); B7-H3/TGFβ bispecific molecule #3
B8: #4 bispecific molecule (bispecific antibody, human IgG1, N297A)
heavy: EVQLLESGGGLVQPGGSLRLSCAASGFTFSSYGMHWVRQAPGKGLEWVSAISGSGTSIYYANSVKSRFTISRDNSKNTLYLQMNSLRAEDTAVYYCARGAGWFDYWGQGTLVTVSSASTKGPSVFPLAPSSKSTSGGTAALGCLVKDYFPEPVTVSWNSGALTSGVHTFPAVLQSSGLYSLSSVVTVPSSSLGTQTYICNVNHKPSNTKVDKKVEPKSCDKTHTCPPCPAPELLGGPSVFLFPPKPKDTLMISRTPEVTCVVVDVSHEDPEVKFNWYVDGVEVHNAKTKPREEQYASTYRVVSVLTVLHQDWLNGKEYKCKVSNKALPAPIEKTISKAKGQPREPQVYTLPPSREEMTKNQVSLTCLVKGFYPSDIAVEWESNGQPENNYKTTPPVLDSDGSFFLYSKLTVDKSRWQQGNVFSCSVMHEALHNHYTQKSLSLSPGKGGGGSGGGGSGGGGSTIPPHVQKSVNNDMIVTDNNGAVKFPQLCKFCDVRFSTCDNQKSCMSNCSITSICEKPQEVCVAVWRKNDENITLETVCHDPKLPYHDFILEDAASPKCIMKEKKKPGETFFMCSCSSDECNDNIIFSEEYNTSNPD
VL: QSVLTQPPSASGTPGQRVTISCSGSTSNIGSNTVNWYQQLPGTAPKLLIYGKNIRPNGVPDRFSGSKSGTSASLAISGLHSEDEADYYCQSYDSSLSGWVFGGGTKLTVL
notes: also called #4 (TRAP); B7-H3/TGFβ bispecific molecule #4
B9: #7 bispecific molecule (bispecific antibody, human IgG1, N297A)
heavy: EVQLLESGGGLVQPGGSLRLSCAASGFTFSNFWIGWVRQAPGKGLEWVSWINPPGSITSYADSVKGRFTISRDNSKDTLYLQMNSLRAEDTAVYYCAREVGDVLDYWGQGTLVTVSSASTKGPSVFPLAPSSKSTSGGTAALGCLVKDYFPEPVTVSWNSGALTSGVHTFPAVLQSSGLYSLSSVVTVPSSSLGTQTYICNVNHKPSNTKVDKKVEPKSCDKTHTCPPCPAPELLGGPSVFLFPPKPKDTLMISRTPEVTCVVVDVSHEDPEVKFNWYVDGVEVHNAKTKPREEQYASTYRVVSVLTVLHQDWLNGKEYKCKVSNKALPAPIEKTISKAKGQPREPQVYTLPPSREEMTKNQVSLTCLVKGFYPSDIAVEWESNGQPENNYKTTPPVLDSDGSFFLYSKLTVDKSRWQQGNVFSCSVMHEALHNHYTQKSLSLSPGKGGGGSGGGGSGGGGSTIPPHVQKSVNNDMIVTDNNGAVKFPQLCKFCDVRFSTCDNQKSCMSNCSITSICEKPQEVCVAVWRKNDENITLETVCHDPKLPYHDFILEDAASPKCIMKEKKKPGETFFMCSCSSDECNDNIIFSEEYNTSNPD
VL: QSVLTQPPSASGTPGQRVTISCTGTSSDIGRYNYVSWYQQLPGTAPKLLIYRNTQRPSGVPDRFSGSKSGTSASLAISGLRSEDEADYYCGTWDSSLNAYVFGGGTKLTVL
notes: also called #7 (TRAP); B7-H3/TGFβ bispecific molecule #7
B10: #1 (mono) B7-H3 mono antibody free of TGFβ binding portion (antibody, human IgG1, N297A, V domains shown)
VH: EVQLLESGGGLVQPGGSLRLSCAASGFTFSSYAMSWVRQAPGKGLEWVSTITGSGGSTYYADSVKGRFTISRDNSKNTLYLQMNSLRAEDTAVYYCARYKSGAFDIWGQGTLVTVSS
VL: B3 VL
B11: #2 (mono) B7-H3 mono antibody free of TGFβ binding portion (antibody, human IgG1, N297A, V domains shown)
VH: EVQLLESGGGLVQPGGSLRLSCAASGFTFSAYYMIWVRQAPGKGLEWVSITNPSGGVTSYAQKFQGRFTISRDNSKNTLYLQMNSLRAEDTAVYYCARVGGRGFDIWGQGTLVTVSS
VL: B6 VL
B12: #3 (mono) B7-H3 mono antibody free of TGFβ binding portion (antibody, human IgG1, N297A, V domains shown)
VH: EVQLLESGGGLVQPGGSLRLSCAASGFTFSTYYMTWVRQAPGKGLEWVSIINPRGGSTSYAEKFQGRFTISRDNSKNTLYLQMNSLRAEDTAVYYCARWNLGMDVWGQGTLVTVSS
VL: B7 VL
B13: #4 (mono) B7-H3 mono antibody free of TGFβ binding portion (antibody, human IgG1, N297A, V domains shown)
VH: EVQLLESGGGLVQPGGSLRLSCAASGFTFSSYGMHWVRQAPGKGLEWVSAISGSGTSIYYANSVKSRFTISRDNSKNTLYLQMNSLRAEDTAVYYCARGAGWFDYWGQGTLVTVSS
VL: B8 VL

Molecular target: T1, recombinant human B7-H3 protein (R&D …)
Test: ELISA; plate-coated recombinant human B7-H3, bispecific titrated
Method: After coating a plate with recombinant human B7-H3 protein (R&D Systems, Cat #1027-B3-100) (30 μL, 20 nM) in 1×PBS solution, the plate was covered and coated overnight at 2 to 8° C. Thereafter, the wells were washed once with 150 μL PBS per well, and blocked with 120 μL of blocking buffer (1×PBS-T w/3% BSA) per well for 2 hours at room temperature. The blocking buffer was discarded and 30 μL of antibody solution was added using a series of dilution solutions (using the blocking buffer, #1 to #9 bispecific molecules were diluted in serial by two times; 2-fold serial dilution), and reacted at room temperature for 1 hour, then the wells were washed three times with 150 μL of wash buffer per well. 30 μL of HRP conjugate of anti-HA Tag antibody diluted in the blocking buffer was added to each well, and reacted at room temperature for 1 hour. Thereafter, the wells were washed three times with 150 μL of washing buffer per well, the HRP reaction was developed using TMB, the reaction was stopped with 1 N HCl, and then the optical density (OD) was measured at 450 nm.
It was confirmed that #1 to #9 bispecific molecules specifically bind to B7-H3 with excellent binding force.

EC50 [nM] | Binder
1.34 | B1
6.11 | B2
27.5 | B3
1.72 | B4
10.2 | B5
3.19 | B6
5.94 | B7
29.3 | B8
12.2 | B9

Molecular target: T2, recombinant human TGFβ3 protein (R&D …)
Test: ELISA; plate-coated TGFβ3, bispecific titrated, anti-human IgG1 Fc-HRP
Method: (§1) After coating a plate with each of recombinant human TGFβ1 protein (R&D Systems, Cat #7754-BH-025/CF) and TGFβ3 protein (R&D Systems, Cat #8420-B3-025/CF) (30 μL, 0.5 μg/ml) in 1×PBS solution, the plate was covered and cultured overnight at 2 to 8° C. Thereafter, the wells were washed once with 150 μL PBS per well, and blocked with 120 μL of blocking buffer (1×PBS-T w/3% BSA) per well for 2 hours at room temperature. The blocking buffer was discarded and 30 μL solution containing #1 to #9 bispecific molecules (5-fold serial dilution) was added, followed by reaction for 1 hour at room temperature. Then, the wells were washed three times with 150 μL PBS per well. 30 μL of HRP conjugated anti-Human IgG1 Fc Ab diluted in the blocking buffer was added to each well, and reacted at room temperature for 1 hour. Thereafter, the wells were washed three times with 150 μL of washing buffer per well, the HRP reaction was developed using TMB, and the reaction was stopped with 30 μL 1 N HCl. Then, the optical density (OD) was measured at 450 nm.

EC50 [nM] | Binder
4.56 | B1
5.98 | B2
4.72 | B3
2.94 | B4
3.14 | B5
7.92 | B6
3.8 | B7
3.32 | B8
8.09 | B9

Molecular target: T4, recombinant human TGFβ1 protein (R&D Systems, Cat #7754-BH-025/CF) (human, UniProt P01137 279-390)
T4 construct: Bought protein
Test: bridging ELISA on plate-coated TGFβ1, detected with His-tag human B7-H3; paragraph 158 says the mono antibodies are not bound to TGFβ1

T4 sequence (P01137 279-390 limits assumed): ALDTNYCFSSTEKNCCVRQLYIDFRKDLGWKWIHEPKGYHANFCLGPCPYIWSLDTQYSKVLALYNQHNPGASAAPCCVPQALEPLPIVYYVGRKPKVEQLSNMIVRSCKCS

binding result | Binder
no binding | B10
no binding | B11
no binding | B12
no binding | B13

Molecular target: T4, recombinant human TGFβ1 protein (R&D …)
Test: bridging ELISA; plate-coated TGFβ1, bispecific titrated, detected with His-tag human B7-H3 and anti-His-HRP
Method: After coating a plate with the recombinant human TGFβ1 protein (30 μL, 0.5 μg/ml) in 1×PBS solution, the plate was covered and cultured overnight at 2 to 8° C. Thereafter, the wells were washed once with 150 μL PBS per well, and blocked with 120 µL of blocking buffer (1×PBS-T w/3% BSA) per well for 2 hours at room temperature. The blocking buffer was discarded and 4-fold diluted antibody solution was added by 30 μL, followed by reaction for 2 hour at room temperature. Then, the wells were washed three times with 150 μL of washing buffer (1×PBS-T) per well.
Thereafter, 30 μL of His-tag human B7-H3 protein diluted in the blocking buffer was added to each well, and cultured at room temperature for 2 hours. Thereafter, the wells were washed three times with 150 μL of washing buffer per well. 30 μL of HRP conjugate of anti-His tag antibody diluted in the blocking buffer was added to each well, and reacted at room temperature for 1 hour. Thereafter, the wells were washed three times with 150 μL of washing buffer per well, the HRP reaction was developed using TMB, and the reaction was stopped with 30 μL 1 N HCl. Then, the optical density (OD) was measured at 450 nm.

EC50 [nM] | Binder
2.21 | B1
1.56 | B2
3.83 | B3
1.98 | B4
3.74 | B5
1.43 | B6
2.11 | B7
1.96 | B8
3.15 | B9

Molecular target: T3, recombinant human TGFβ2 (R&D Systems, …)
Test: ELISA; plate-coated bispecific, TGFβ2 titrated (EC50 is a TGFβ2 concentration), biotinylated anti-TGFβ2 detection
Method: After coating a plate with 1×PBS solution containing #1 to #9 bispecific molecules (30 μL, 0.5 μM), the plate was covered and cultured overnight at 2 to 8° C. Thereafter, the wells were washed once with 150 μL PBS per well, and blocked with 120 µL of blocking buffer (1×PBS-T w/3% BSA) per well for 2 hours at room temperature. The blocking buffer was discarded, recombinant human TGFβ2 (R&D Systems, Cat #302-B2-010/CF) was 4-fold diluted in serial from 30 nM. After adding each diluted solution to the wells by 30 μL per well, it was reacted at room temperature for 1 hour. Then, the wells were washed three times with 150 μL of washing buffer (1×PBS-T) per well, followed by diluting Biotinylated-TGF-beta2 antibody combined with the recombinant human TGFβ2 protein in the blocking buffer. After adding the diluted solution to the wells by 30 μL per well, it was reacted at room temperature for 1 hour. Further, after washing the wells three times with 150 μL of washing buffer (1×PBS-T) per well, 30 μL of streptavidin-HRP diluted in the blocking buffer was added to each well, and reacted at room temperature for 1 hour. After washing the wells three times with 150 μL of washing buffer (1×PBS-T) per well, HRP reaction was developed using TMB, and the reaction was stopped with 30 μL 1 N HCl. Then, the optical density (OD) was measured at 450 nm.

EC50 [nM] | Binder
0.083 | B1
0.143 | B2
0.136 | B3
2.08 | B4
0.143 | B5
0.14 | B6
0.076 | B7
0.13 | B8
0.12 | B9

Molecular target: T4, recombinant human TGFβ1 protein (R&D …)
Test: ELISA; plate-coated TGFβ1, bispecific titrated, anti-human IgG1 Fc-HRP
Method: as §1

EC50 [nM] | Binder
9.08 | B1
3.94 | B2
3.84 | B3
3.41 | B4
3.62 | B5
5.83 | B6
4.39 | B7
2.02 | B8
24.8 | B9
